The text below walks through data of patent publication US20230183713A1, “SITE-SPECIFIC RECOMBINASES FOR EFFICIENT AND SPECIFIC GENOME EDITING” (TECHNISCHE UNIVERSITÄt DRESDEN, published 2023).

Where a chain is given by its changes, count along the chain named. Names may count otherwise.

The labels stand for the following.
B1: Cre recombinase monomer with R173E mutation (protein)
chain: MSNLLTVHQNLPALPVDATSDEVRKNLMDMFRDRQAFSEHTWKMLLSVCRSWAAWCKLNNRKWFPAEPEDVRDYLLYLQARGLAVKTIQQHLGQLNMLHRRSGLPRPSDSNAVSLVMRRIRKENVDAGERAKQALAFERTDFDQVRSLMENSDRCQDIRNLAFLGIAYNTLLEIAEIARIRVKDISRTDGGRMLIHIGRTKTLVSTAGVEKALSLGVTKLVERWISVSGVADDPNNYLFCRVRKNGVAAPSATSQLSTRALEGIFEATHRLIYGAKDDSGQRYLAWSGHSARVGAARDMARAGVSIPEIMQAGGWTNVNIVMNYIRNLDSETGAMVRLLEDGD
B2: Cre recombinase monomer with R173D mutation (protein)
chain: B1 chain with E173D
B3: Cre recombinase monomer with R173Y mutation (protein)
chain: B1 chain with E173Y
B4: Cre recombinase monomer with R173V mutation (protein)
chain: B1 chain with E173V
B5: Cre recombinase monomer with E176Y mutation (protein)
chain: B1 chain with E173R, E176Y
B6: Cre recombinase monomer with K201A mutation (protein)
chain: B1 chain with E173R, K201A
B7: Cre recombinase monomer with K201M mutation (protein)
chain: B1 chain with E173R, K201M
B8: Cre recombinase monomer with E176M mutation (protein)
chain: B1 chain with E173R, E176M
B9: Cre recombinase monomer with R292A mutation (protein)
chain: B1 chain with E173R, R292A
B10: Cre recombinase monomer with R292N mutation (protein)
chain: B1 chain with E173R, R292N
B11: Cre recombinase monomer with H289D mutation (protein)
chain: B1 chain with E173R, H289D
B12: Cre recombinase monomer with K201T mutation (protein)
chain: B1 chain with E173R, K201T
B13: Cre recombinase monomer with R173A mutation (protein)
chain: B1 chain with E173A
B14: Cre recombinase monomer with R292H mutation (protein)
chain: B1 chain with E173R, R292H
B15: Cre recombinase monomer with K201S mutation (protein)
chain: B1 chain with E173R, K201S
B16: Cre recombinase monomer with H289I mutation (protein)
chain: B1 chain with E173R, H289I
B17: Cre recombinase monomer with R292L mutation (protein)
chain: B1 chain with E173R, R292L
B18: Cre recombinase monomer with R173K mutation (protein)
chain: B1 chain with E173K
B19: Cre recombinase monomer with R292V mutation (protein)
chain: B1 chain with E173R, R292V
B20: Cre recombinase monomer with R292F mutation (protein)
chain: B1 chain with E173R, R292F
B21: Cre recombinase monomer with R292G mutation (protein)
chain: B1 chain with E173R, R292G
B22: Cre recombinase monomer with K201R mutation (protein)
chain: B1 chain with E173R, K201R
B23: Cre recombinase monomer with R292C mutation (protein)
chain: B1 chain with E173R, R292C
B24: Cre recombinase monomer with H289R mutation (protein)
chain: B1 chain with E173R, H289R
B25: Cre recombinase monomer with R292W mutation (protein)
chain: B1 chain with E173R, R292W
B26: Cre recombinase monomer with K201H mutation (protein)
chain: B1 chain with E173R, K201H
B27: Cre recombinase monomer with E176L mutation (protein)
chain: B1 chain with E173R, E176L
B28: Cre recombinase monomer with R292S mutation (protein)
chain: B1 chain with E173R, R292S
B29: Cre recombinase monomer with R292Q mutation (protein)
chain: B1 chain with E173R, R292Q
B30: Cre recombinase monomer with R292I mutation (protein)
chain: B1 chain with E173R, R292I
B31: Cre recombinase monomer with K201G mutation (protein)
chain: B1 chain with E173R, K201G
B32: Cre recombinase monomer with R292P mutation (protein)
chain: B1 chain with E173R, R292P
B33: Cre recombinase monomer with K201I mutation (protein)
chain: B1 chain with E173R, K201I

For one series, the target named is T1, Cre recombinase monomer with E176H mutation.
T1 chain: B1 chain with E173R, E176H
For B1, the “Median dimer activity (recombination on loxP)” value (from here on “Median dimer activity”) was 32%.
Turning to B2, the “Median dimer activity” value is reported as 29%.

The target of a further series is T2, Cre recombinase monomer with E176V mutation.
T2 chain: B1 chain with E173R, E176V
For the protein B3, the “Median dimer activity” value is reported as 35%.
As for B2, the “Median dimer activity” value is 53%.
Turning to B4, the “Median dimer activity” value is reported as 53%.

A further series concerns the target T3, Cre recombinase monomer with K201R mutation.
T3 chain: B1 chain with E173R, K201R
On to B5, for which the “Median dimer activity” value is 39%.
On the same count and under the same terms, with B6 the figure was 64%; with B7, 76%.
For B8, the “Median dimer activity” value was 35%.

In the next series the target is T4, Cre recombinase monomer with Q311R mutation.
T4 chain: B1 chain with E173R, Q311R
On to B5, for which the “Median dimer activity” value came to 79%.
B9: the “Median dimer activity” value came to 96%.
B10: the “Median dimer activity” value stood at 95%.
In the case of B6, the “Median dimer activity” value was found to be 95%.
The same measure, in the same setting: with B11 the figure was 97%; with B12, 94%.
B7: the “Median dimer activity” value was 93%.
For the protein B13, the “Median dimer activity” value is on record as 93%.
Take B14: the “Median dimer activity” value is 88%.
B15: the “Median dimer activity” value is listed as 95%.
Regarding B16, the “Median dimer activity” value was determined as 75%.
Consider B17, for which the “Median dimer activity” value worked out at 93%.
On to B18, for which the “Median dimer activity” value was 84%.
For the protein B8, the “Median dimer activity” value is recorded as 82%.
On to B19, for which the “Median dimer activity” value amounted to 95%.
For B3, the “Median dimer activity” value was determined as 92%.
B1: the “Median dimer activity” value is listed as 80%.
In the case of B20, the “Median dimer activity” value was 42%.
As to B2, the “Median dimer activity” value turned out to be 89%.
Take B21: the “Median dimer activity” value was determined as 97%.
The same measure, in the same setting: with B22 the figure was 98%; with B23, 93%; with B24, 79%.
Consider B4, for which the “Median dimer activity” value turned out to be 92%.
In the case of B25, the “Median dimer activity” value was found to be 88%.
As to B26, the “Median dimer activity” value is given as 94%.
As for B27, the “Median dimer activity” value is reported as 40%.
The same measure, in the same setting: with B28 the figure was 97%; with B29, 70%.
In the case of B30, the “Median dimer activity” value came to 97%.
Still for that read-out and setting: with B31 the figure was 90%.
Same read-out and setting: for B32 the value was 76%; for B33, 86%.
